Results published in article PMC3192311.
Values joined by “and” are separate entries in the source; they are usually repeats but may differ in a detail not shown here. Identical values can stand only once.

Experiments:
[1] = molecular target: LMP-1 TM5 D150A synthetic peptide (Epstein-Barr virus); experiment: AUC
[2] = molecular target: LMP-1 transmembrane helix 1 synthetic peptide (TM1) (Epstein-Barr virus); experiment: AUC
[3] = molecular target: Latent Membrane Protein 1 D150A, full length (Epstein-Barr virus) (UniProt P03230)
[4] = molecular target: Latent Membrane Protein 1 D150A, full length (Epstein-Barr virus) (UniProt P03230); remark: listed apart in the source

LMP-1 TM5 D150A synthetic peptide
stoichiometry N [1]: 2

LMP-1 transmembrane helix 1 synthetic peptide (TM1)
stoichiometry N [2]: 2 and 4

Latent Membrane Protein 1 D150A, full length (from UniProt P03230 1-386) (natural protein)
p65 nuclear translocation in HEp2 cells, % of exp + cells with nuc p65 (TR > 1) [3]: 38%
NFκB luciferase reporter assay in HEp2 cells, luciferase against empty vector [4]: 1.2 times
